# Results: article PMC4879557, “HPTLC-aptastaining – Innovative protein detection system for high-performance thin-layer chromatography”
# T1: beta-lactoglobulin (UniProt P02754 17-178)
# T1 sequence: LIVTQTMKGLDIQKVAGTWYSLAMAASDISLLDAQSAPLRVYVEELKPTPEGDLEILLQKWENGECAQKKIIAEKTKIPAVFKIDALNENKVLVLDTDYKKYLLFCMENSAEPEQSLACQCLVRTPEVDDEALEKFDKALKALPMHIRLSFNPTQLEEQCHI
# B1: 5'-ATTO 550-LysApt4 (ssDNA)
# DNA: CATCCGTCACACCTGCTCTTGTTATTTTTTGTTGATGTAGGTTTGATGATGTATTTCCGGTGTTCGGTCCCGTATC
# B2: 5'-ATTO 550-LysApt5 (ssDNA)
# DNA: CATCCGTCACACCTGCTCCCTGCTAGAATTTTTCATGATCTTGCTGTATTTCTATTATGGTGTTCGGTCCCGTATC
# Experiments:
# [1] = target: T2, lysozyme (hen (egg white), UniProt P00698 19-147); assay: HPTLC-aptastaining; no obvious differences to LysApt5; White wine mimicking buffer: 1.5 mM KCl, 14.5 mM K acetate, 3.5 mM Mg acetate, 1.5 mM Ca acetate, 1 mM NaH2PO4, 4 mM KH2PO4, 11.5% (v/v) ethanol, pH 3.1; room temperature; plates blocked with 0.6% Tween 20; aptamer 5 nM (silica gel, cellulose) or 0.5 nM (RP); conditions: protein: native; label: 5' ATTO 550
# [2] = target: T2, lysozyme; assay: HPTLC-aptastaining; RP-18W and silica gel plates; White wine mimicking buffer: 1.5 mM KCl, 14.5 mM K acetate, 3.5 mM Mg acetate, 1.5 mM Ca acetate, 1 mM NaH2PO4, 4 mM KH2PO4, 11.5% (v/v) ethanol, pH 3.1; room temperature; plates blocked with 0.6% Tween 20; aptamer 5 nM (silica gel, cellulose) or 0.5 nM (RP); conditions: protein: native; label: 5' ATTO 550
# [3] = target: T1, beta-lactoglobulin; assay: as above; conditions: protein: native; chain copies: 2; label: 5' ATTO 550
# T2 sequence (P00698 19-147): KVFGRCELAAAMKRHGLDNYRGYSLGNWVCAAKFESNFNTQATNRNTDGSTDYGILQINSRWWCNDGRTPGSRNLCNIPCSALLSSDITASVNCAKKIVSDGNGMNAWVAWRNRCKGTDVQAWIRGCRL
Binder,binding result [1],binding result [2],binding result [3]
B1,binds,–,–
B2,–,binds,no binding
